The values that follow come from paper PMC3206438, “Identification and characterization of PhbF: A DNA binding protein with regulatory role in the PHB metabolism of Herbaspirillum seropedicae SmR1” (BMC Microbiology, 2011).

In series [1] the test system is His-PhbF (Herbaspirillum seropedicae SmR1). Description: EMSA. Conditions: apparent; 100 ng calf thymus DNA; tetramer concentration; EMSA: 10 mM Tris-HCl pH 7.5, 80 mM NaCl, 1 mM EDTA, 10 mM beta-mercaptoethanol, 5% glycerol, 20 nM DNA, 100 ng calf thymus DNA in 10 uL, 30 C 5 min; footprint: …. (A gel shift assay detects complexes by their altered migration in electrophoresis.)

Series [2] deals with the molecule itself. In words: SEC; gel filtration chromatography of purified His-PhbF; apparent molecular weight 104.3 kDa; conditions not told in the main text (Additional file 1, Figure S2). Background: In gel filtration, larger molecules generally elute earlier.

Consider phaP1 promoter, for which the Kd in series [1] came out at 150 nM. Still for that read-out and setting: to phbF promoter (EMSA) belongs 450 nM.

B1: His-PhbF (H. seropedicae SmR1 PhbF protein fused to an N-terminal six-histidine tag) (natural protein, Herbaspirillum seropedicae SmR1, UniProt D8J0C9 1-188, looked up)
chain: MTTAKNSADRLIKKYPNRRLYDTQTSSYITLTDVKQLVLDNEEFTVVDAKSGDDLTRSILLQIILEEESHGVPMFSSGALSQIIRYYGHAMQGMMGNYLEKNIQTFIDIQNKLAENSKGFYEGKPFSPEMWTQFMNVQGPMMQGMMSNYIEQSKNLFIQMQEQMQSQTKNMFGTFPFGNPGAGPDQKK
notes: the phbF gene was amplified from the genome and cloned into pET-28a (pKADO3); The pET-28a vector residues between the His tag and the protein are not described; also called His-tag PhbF protein; source: E. coli BL21(DE3) carrying pKADO3, purified (Hi-Trap Chelating Ni2+ column); not shown: His6, N-terminal, kept
Usually stoichiometry N stands for the number of molecules, sites or subunits per partner or assembly. Consider B1, for which the “stoichiometry N” value in series [2] came out at 4.
